Residue numbers refer to the chain shown, from its start. Ends that are not written are not given here.
B1: HRG-β1 EGF variant E8 displayed on phage (ligand, not shown: large carriers; small tags and cut ends)
chain: SHLVKCAEKEKTFCVNGGECFMVKDTKYRGCKCPNEFTGDRCQNYVMAS-{(GGGS)3-M13 pIII C‑terminal fragment from residue 323}
modifications: ends and bridges not checked
notes: monovalent phage display; library E carries the 202-204 deletion
B2: HRG-β1 EGF variant A3 displayed on phage (ligand, human, not shown: large carriers)
chain: WELVPCAEKEKTFCVNGGECFMVKDLSNPSRYLCKCPNEFTGDRCQNYVMASGGGSGGGSGGGS
notes: monovalent phage display, pHRG8-g3 background
B3: HRG-β1 EGF variant I2 displayed on phage (ligand, human, not shown: large carriers)
chain: B2 chain with W1S, E2H, P5K, N47H, M50I
notes: as for B2
B4: HRG-β1 EGF variant I1 displayed on phage (ligand, human, not shown: large carriers)
chain: B2 chain with W1S, E2H, P5K, N47W, M50I
notes: as for B2
B5: HRG90 (HRG-β1 EGF Met226Ile) displayed on phage (ligand, human, not shown: large carriers)
chain: B2 chain with W1S, E2H, P5K, M50I
notes: monovalent phage display
B6: HRG-β1 EGF variant B3 displayed on phage (ligand, human, not shown: large carriers)
chain: B2 chain with W1S, E2H, P5K, A7G, K9E, E10R, K11E, T12G
notes: as for B2
B7: HRG-β1 EGF variant D4 displayed on phage (ligand, human, not shown: large carriers)
chain: B2 chain with W1S, E2H, P5K, F21Y, M22R, D25T
notes: as for B2
B8: HRG-β1 EGF variant G1 displayed on phage (ligand, not shown: large carriers; small tags and cut ends)
chain: SHLVKCAEKEKTFCVNGGECFMVKDLSNPSRYLCRCSLEFTGDRCQNYVMAS-{(GGGS)3-M13 pIII C‑terminal fragment from residue 323}
modifications: ends and bridges not checked
notes: as for B2
B9: HRG-β1 EGF variant E2 displayed on phage (ligand, human, not shown: large carriers)
chain: SHLVKCAEKEKTFCVNGGECFMVKDYGYLMCKCPNEFTGDRCQNYVMASGGGSGGGSGGGS
notes: monovalent phage display
B10: HRG73 combination variant displayed on phage (ligand, human, not shown: large carriers)
chain: SHLVKCGEEREGFCVNGGECYRVKTYGYLMCKCPNEFTGDRCQHYVIASGGGSGGGSGGGS
notes: monovalent phage display; also called B3+D4+E2+I2
B11: HRG37 combination variant displayed on phage (ligand, not shown: large carriers; small tags and cut ends)
chain: WELVPCGWDREGFCVNGGECFMVKDLSNPSRYLCKCPNEFTGDRCQNYVIAS-{(GGGS)3-M13 pIII C‑terminal fragment from residue 323}
modifications: ends and bridges not checked
notes: as for B2

Assays:
[1] = molecular target: T1, ErbB-3 receptor-Ig fusion (human, UniProt P21860 20-643; P21860 20-636); assay: 125I-HRG-β1 177-244 displacement, ErbB-3-Ig on plate
[2] = molecular target: T2, ErbB-4 receptor-Ig fusion (human, UniProt Q15303 26-651; Q15303 26-640); assay: 125I-HRG-β1 177-244 displacement, ErbB-4-Ig on plate
[3] = molecular target: T1, ErbB-3 receptor-Ig fusion; assay: phage ELISA, competition with soluble ErbB-3-Ig; against wild-type HRG-β1 177-244 on phage
[4] = molecular target: T2, ErbB-4 receptor-Ig fusion; assay: phage ELISA, competition with soluble ErbB-4-Ig; against wild-type HRG-β1 177-244 on phage
[5] = molecular target: T1, ErbB-3 receptor-Ig fusion; assay: phage ELISA, competition with soluble ErbB-3-Ig; against HRG8
Protocol: Microtiter plates (Nunc Maxisorp™ 96-well plates, Inter Med, Denmark) for phage ELISA were prepared as follows. The wells were precoated overnight with 0.5 μg of rabbit anti-human IgG (Fc gamma fragment-specific) antibodies (Jackson Immunoresearch, West Grove, Pa.) in 100 μL 50 mM NaCO₃ (pH 9.6). The wells were blocked for 30 minutes (min) with 200 μL PBS containing 0.1% bovine serum albumin (BSA) and rinsed with wash buffer (PBS containing 0.05% Tween 20™). The wells were then coated with 0.1 μg ErbB-2/3-Ig in binding buffer (PBS, 0.1% BSA, 0.05% Tween 20™) for 1 h, and washed again.
Following incubation for 2 h at room temperature, plates were washed extensively and treated with a 1:900 dilution of anti-M13 horseradish peroxidase conjugate (Pharmacia, Piscataway, N.J.) for 20 min. The amount of phage binding was determined by assaying horseradish peroxidase activity using o-phenylenediamine dihydrochloride) substrate solution (Sigma Chemical Company, St. Louis, Mo.).

[6] = molecular target: T2, ErbB-4 receptor-Ig fusion; assay: phage ELISA, competition with soluble ErbB-4-Ig; against HRG8

T2 sequence (Q15303 other isoform, or with tags, fused parts or gaps): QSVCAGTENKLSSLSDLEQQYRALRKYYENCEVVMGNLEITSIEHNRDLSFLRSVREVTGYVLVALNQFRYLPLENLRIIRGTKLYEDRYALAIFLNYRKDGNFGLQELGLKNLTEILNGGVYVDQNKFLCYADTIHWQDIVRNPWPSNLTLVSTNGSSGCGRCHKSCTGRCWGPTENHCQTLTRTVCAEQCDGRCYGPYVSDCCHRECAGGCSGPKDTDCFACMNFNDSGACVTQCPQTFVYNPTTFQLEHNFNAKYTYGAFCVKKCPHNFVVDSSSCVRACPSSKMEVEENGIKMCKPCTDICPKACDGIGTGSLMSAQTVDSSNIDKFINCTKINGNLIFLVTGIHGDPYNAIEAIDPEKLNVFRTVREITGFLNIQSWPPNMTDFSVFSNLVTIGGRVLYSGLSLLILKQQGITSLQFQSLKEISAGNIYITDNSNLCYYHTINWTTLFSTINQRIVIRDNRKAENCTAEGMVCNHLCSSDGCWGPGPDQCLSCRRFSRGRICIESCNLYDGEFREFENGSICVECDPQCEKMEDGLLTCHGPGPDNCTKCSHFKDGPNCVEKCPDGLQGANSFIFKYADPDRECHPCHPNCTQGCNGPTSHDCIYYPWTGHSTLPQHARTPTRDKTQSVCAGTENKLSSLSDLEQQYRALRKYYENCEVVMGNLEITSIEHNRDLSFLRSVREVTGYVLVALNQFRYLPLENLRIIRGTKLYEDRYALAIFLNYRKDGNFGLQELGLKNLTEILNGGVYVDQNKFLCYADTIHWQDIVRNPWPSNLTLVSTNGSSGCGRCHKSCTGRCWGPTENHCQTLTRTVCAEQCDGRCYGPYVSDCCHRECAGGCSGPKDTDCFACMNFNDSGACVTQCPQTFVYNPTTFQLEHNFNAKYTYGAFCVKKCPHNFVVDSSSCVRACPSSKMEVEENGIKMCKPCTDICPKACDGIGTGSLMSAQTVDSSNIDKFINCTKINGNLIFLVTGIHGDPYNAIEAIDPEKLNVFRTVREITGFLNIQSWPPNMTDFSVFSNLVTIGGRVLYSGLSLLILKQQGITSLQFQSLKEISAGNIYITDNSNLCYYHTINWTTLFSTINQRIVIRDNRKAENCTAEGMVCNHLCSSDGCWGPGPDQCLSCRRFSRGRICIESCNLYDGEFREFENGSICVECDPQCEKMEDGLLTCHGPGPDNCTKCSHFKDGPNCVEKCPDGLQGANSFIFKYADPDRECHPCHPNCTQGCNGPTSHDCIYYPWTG
T1 sequence (P21860 other isoform, or with tags, fused parts or gaps): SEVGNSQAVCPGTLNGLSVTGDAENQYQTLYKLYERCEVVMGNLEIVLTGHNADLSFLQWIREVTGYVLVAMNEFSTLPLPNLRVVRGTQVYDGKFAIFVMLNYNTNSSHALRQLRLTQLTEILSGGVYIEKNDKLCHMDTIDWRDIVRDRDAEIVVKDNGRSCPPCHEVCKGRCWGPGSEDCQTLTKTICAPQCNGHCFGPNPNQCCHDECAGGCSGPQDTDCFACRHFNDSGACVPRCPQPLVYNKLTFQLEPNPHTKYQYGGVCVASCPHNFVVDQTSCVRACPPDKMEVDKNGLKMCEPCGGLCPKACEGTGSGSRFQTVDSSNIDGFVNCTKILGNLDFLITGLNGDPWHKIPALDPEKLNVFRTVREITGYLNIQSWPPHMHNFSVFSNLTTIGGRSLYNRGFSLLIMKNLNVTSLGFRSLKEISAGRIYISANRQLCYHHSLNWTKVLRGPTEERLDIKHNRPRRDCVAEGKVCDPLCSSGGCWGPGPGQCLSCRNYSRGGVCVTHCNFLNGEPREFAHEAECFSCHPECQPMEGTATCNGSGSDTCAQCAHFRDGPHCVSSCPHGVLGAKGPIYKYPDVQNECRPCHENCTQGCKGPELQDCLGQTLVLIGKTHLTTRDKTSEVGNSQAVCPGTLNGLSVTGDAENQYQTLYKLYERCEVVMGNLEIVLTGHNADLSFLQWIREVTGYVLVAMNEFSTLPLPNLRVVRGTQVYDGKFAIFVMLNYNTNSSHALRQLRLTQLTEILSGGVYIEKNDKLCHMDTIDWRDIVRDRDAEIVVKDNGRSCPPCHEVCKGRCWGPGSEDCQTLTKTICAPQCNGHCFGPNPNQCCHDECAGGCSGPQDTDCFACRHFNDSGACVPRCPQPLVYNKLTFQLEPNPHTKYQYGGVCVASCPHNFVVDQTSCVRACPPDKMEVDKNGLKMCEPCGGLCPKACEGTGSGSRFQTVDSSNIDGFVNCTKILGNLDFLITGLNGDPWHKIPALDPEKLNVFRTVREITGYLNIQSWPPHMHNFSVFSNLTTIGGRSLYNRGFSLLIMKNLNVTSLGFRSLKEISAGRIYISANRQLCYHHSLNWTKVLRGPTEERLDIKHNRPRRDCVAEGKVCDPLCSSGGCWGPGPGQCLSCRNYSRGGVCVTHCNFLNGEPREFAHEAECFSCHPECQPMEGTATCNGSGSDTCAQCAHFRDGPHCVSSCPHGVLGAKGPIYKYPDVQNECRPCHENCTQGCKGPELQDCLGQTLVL

Molecule	EC50 [1] [nM]	EC50 [2] [nM]	other results
Trx-HRG-β1 146-244 G194A fusion (from UniProt Q02297 146-244) (ligand)	1210	275	
HRG-β1 177-244 H178E displayed on phage (Example 4 clone) (from UniProt Q02297 177-244) (ligand)			EC50 Mut/WT [3]: 9.5; EC50 Mut/WT [4]: 1.7
HRG-β1 177-244 R207P displayed on phage (Example 4 clone) (from UniProt Q02297 177-244) (ligand)			EC50 Mut/WT [3]: 6.1; EC50 Mut/WT [4]: 1.3
Trx-HRG-β1 146-244 F229A fusion (from UniProt Q02297 146-244) (ligand)	177	89.9	
Trx-HRG-β1 146-244 V199A fusion (from UniProt Q02297 146-244) (ligand)		246	
Trx-HRG-β1 146-244 G193A fusion (from UniProt Q02297 146-244) (ligand)	26.9	76.3	
Trx-HRG-β1 146-244 G218A fusion (from UniProt Q02297 146-244) (ligand)	668	608	
Trx-HRG-β1 146-244 F189A fusion (from UniProt Q02297 146-244) (ligand)	975	565	
Trx-HRG-β1 146-244 K211A fusion (from UniProt Q02297 146-244) (ligand)	248	124	
Trx-HRG-β1 146-244 P205A fusion (from UniProt Q02297 146-244) (ligand)	39.5	34.2	
Trx-HRG-β1 146-244 Y224A fusion (from UniProt Q02297 146-244) (ligand)	339	24.5	
HRG-β1 177-244 H178L displayed on phage (Example 4 clone) (from UniProt Q02297 177-244) (ligand)			EC50 Mut/WT [3]: 1.4; EC50 Mut/WT [4]: 1.2
HRG-β1 177-244 L179V displayed on phage (Example 4 clone) (from UniProt Q02297 177-244) (ligand)			EC50 Mut/WT [3]: 1.5; EC50 Mut/WT [4]: 1.6
Trx-HRG-β1 146-244 H178A fusion (from UniProt Q02297 146-244) (ligand)	476	138	
Trx-HRG-β1 146-244 L179A fusion (from UniProt Q02297 146-244) (ligand)	394	51.7	
HRG-β1 177-244 H178D L179V displayed on phage (Example 4 clone) (from UniProt Q02297 177-244) (ligand)			EC50 Mut/WT [3]: 2.2; EC50 Mut/WT [4]: 2
HRG-β1 177-244 H178W with 228-231 replaced by Met, displayed on phage (Example 4 clone) (from UniProt Q02297 177-227; Q02297 232-244) (ligand)			EC50 Mut/WT [3]: 1.2; EC50 Mut/WT [4]: 1.7
Trx-HRG-β1 146-244 E195A fusion (from UniProt Q02297 146-244) (ligand)	42	13.2	
Trx-HRG-β1 146-244 K200A fusion (from UniProt Q02297 146-244) (ligand)	45.4	16.9	

Molecule	EC50 [1] [nM]	EC50 [2] [nM]	other results
HRG-β1 177-244 H178L with 228-231 replaced by Met, displayed on phage (Example 4 clone) (from UniProt Q02297 177-227; Q02297 232-244) (ligand)			EC50 Mut/WT [3]: 6.4; EC50 Mut/WT [4]: 1.7
Trx-HRG-β1 146-244 F216A fusion (from UniProt Q02297 146-244) (ligand)	2550	173	
Trx-HRG-β1 146-244 N192A fusion (from UniProt Q02297 146-244) (ligand)	1640	696	
Trx-HRG-β1 146-244 S177A fusion (from UniProt Q02297 146-244) (ligand)	129	54.6	
Trx-HRG-β1 146-244 E215A fusion (from UniProt Q02297 146-244) (ligand)	156	104	
Trx-HRG-β1 146-244 R207A fusion (from UniProt Q02297 146-244) (ligand)	245	24.3	
Trx-HRG-β1 146-244 T217A fusion (from UniProt Q02297 146-244) (ligand)	145	32.7	
B1			EC50 (wt)/EC50 (mut) [5]: 17 ratio
B2			EC50 (wt)/EC50 (mut) [5]: 0.96 ratio; EC50 (wt)/EC50 (mut) [6]: 1.1 ratio
B3			EC50 (wt)/EC50 (mut) [5]: 20 ratio; EC50 (wt)/EC50 (mut) [6]: 10 ratio
B4			EC50 (wt)/EC50 (mut) [5]: 13 ratio
B5			EC50 (wt)/EC50 (mut) [5]: 6.3 ratio
B6			EC50 (wt)/EC50 (mut) [5]: 4.7 ratio; EC50 (wt)/EC50 (mut) [6]: 1.7 ratio
B7			EC50 (wt)/EC50 (mut) [5]: 2.9 ratio; EC50 (wt)/EC50 (mut) [6]: 5 ratio
B8			EC50 (wt)/EC50 (mut) [5]: 1.2 ratio; EC50 (wt)/EC50 (mut) [6]: 1.6 ratio
B9			EC50 (wt)/EC50 (mut) [5]: 28 ratio; EC50 (wt)/EC50 (mut) [6]: 7.6 ratio
B10			EC50 (wt)/EC50 (mut) [5]: 56 ratio; EC50 (wt)/EC50 (mut) [6]: 16 ratio
B11			EC50 (wt)/EC50 (mut) [5]: 13 ratio

Source: US20030129688A1 (published 2003)
